Data taken from patent US20230272086A1 (CHIA TAI TIANQING PHARMACEUTICAL GROUP, published 2023).

T1: IL1R1/CD121a (Sino biological, 10126-H08H) (UniProt P14778 18-332)
T1 construct: Bought protein
T1 sequence (looked up): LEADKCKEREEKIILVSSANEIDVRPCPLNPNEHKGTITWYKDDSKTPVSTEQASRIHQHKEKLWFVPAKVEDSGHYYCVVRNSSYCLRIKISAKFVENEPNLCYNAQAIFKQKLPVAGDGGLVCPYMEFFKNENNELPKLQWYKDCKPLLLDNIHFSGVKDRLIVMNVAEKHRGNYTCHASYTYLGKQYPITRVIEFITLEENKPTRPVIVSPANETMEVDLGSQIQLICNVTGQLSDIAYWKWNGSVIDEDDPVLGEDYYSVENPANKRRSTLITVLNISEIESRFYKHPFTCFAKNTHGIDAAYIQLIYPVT

T2: human ST2 (hST2, Interleukin-1 receptor-like 1 isoform A) on cells (human, UniProt Q01638 19-556)
T2 sequence: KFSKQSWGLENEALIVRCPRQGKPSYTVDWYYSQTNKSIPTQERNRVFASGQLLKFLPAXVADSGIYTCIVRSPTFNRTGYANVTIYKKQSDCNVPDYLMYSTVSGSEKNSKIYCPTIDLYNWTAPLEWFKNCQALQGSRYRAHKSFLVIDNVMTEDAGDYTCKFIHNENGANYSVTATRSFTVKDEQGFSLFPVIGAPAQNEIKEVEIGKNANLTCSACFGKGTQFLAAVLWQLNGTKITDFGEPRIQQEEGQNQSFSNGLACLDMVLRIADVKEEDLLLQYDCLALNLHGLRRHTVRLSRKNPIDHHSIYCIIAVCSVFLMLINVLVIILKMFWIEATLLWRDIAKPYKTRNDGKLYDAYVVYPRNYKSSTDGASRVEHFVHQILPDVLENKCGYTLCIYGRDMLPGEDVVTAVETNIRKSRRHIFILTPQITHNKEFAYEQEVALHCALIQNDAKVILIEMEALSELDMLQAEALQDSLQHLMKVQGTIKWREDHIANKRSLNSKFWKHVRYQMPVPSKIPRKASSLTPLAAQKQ


How the values were obtained:
[1] = molecular target: recombinant protein containing hST2 extracellular domain with human antibody heavy chain Fc tag (hST2-ECD-hFc) (human); assay: competition ELISA, coated hST2-ECD-hFc, antibody then biotin-labeled hIL33 Avitag (competitor)
Description: Whether the anti-ST2 antibodies were able to block the binding of hIL33 to hST2 was determined based on ELISA. A high-adsorption 96-well plate was coated with 2 µg/mL hST2-ECD-hFc at 100 µL/well and incubated overnight at 4° C. After the antigen not adsorbed was well washed off, the non-specific binding sites were blocked with a blocking buffer (PBST containing 1% bovine serum albumin). After the plate was washed three times with a washing buffer (PBST, PBS containing 0.05% (v/v) Tween 20), the anti-ST2 antibodies (serially diluted 2-fold from an initial concentration of 66.67 nM to 8 concentrations) were added at 100 µL/well, and the plate was incubated at 37° C. for 1 h After the plate was washed 3 times with the washing buffer, 100 µL of biotin-labeled hIL33 Avitag (with a concentration of 0.1 µg/mL) was added to each well, and the plate was incubated at 37° C. for 1 h. After the plate was washed 3 times with the washing buffer, a 1:1000 diluted secondary antibody Avidin HRP (Jackson immunoresearch, 016-030-084) was added at 100 µL/well, and the plate was incubated at room temperature for 1 h After the plate was washed with the washing buffer, the substrate TMB solution (Thermo, 00-4201-56) was added at 100 µL/well, and the plate was incubated at room temperature for 3 min. 50 µL of a stop solution (2 N H₂SO₄) was added to terminate the reactions. Colorimetric signals were generated and read at 450 nm using a plate reader (PE, Envision). The data were analyzed using GraphPad Prism5, and the IC₅₀ values were calculated.
The humanized antibodies hz31C81-1.1 (the amino acid sequence of the heavy chain set forth in SEQ ID NO: 75 and the amino acid sequence of the light chain set forth in SEQ ID NO: 81) and hz31C8-1.2 (the amino acid sequence of the heavy chain set forth in SEQ ID NO: 77 and the amino acid sequence of the light chain set forth in SEQ ID NO: 81) were subjected to affinity, binding, blocking and cell function analyses using the methods described in Example 4, Example 5, Example 6, Example 7, Example 8, Example 9 and Example 10.

[2] = molecular target: T1, IL1R1/CD121a (Sino biological, …); assay: ELISA, plate coated with 2 µg/mL receptor
Description: The anti-ST2 antibodies were diluted with PBS buffer to a concentration of 1.5 mg/mL. After being treated at 72° C. for 5 min, the samples were assayed by ELISA for their binding activity for an antigen The ELISA procedure is as follows: A 96-well plate was coated with 2 µg/mL hST2-ECD-mFc as the antigen at 100 µL/well and incubated at 4° C. overnight. After the antigen not adsorbed was well washed off, the non-specific binding sites were blocked with a blocking buffer (PBST containing 1% bovine serum albumin). After the plate was washed three times with a washing buffer (PBST, PBS containing 0.05% (v/v) Tween 20), the anti-ST2 antibodies (serially diluted 3-fold from an initial concentration of 1.5 µg/mL to 8 concentrations) were added at 100 µL/well, and the plate was incubated at 37° C. for 1 h. […] After the plate was incubated at room temperature for 5 min, a stop solution (2 N H₂SO₄) was added to stop the reactions. The signals were read at 450 nm using a plate reader (PE, Envision). The data were analyzed using GraphPad Prism5, and the EC₅₀ values were calculated.
ST2 belongs to the IL1R receptor family. The cross-reactivity of the anti-ST2 antibodies with the IL1R family receptors was determined by ELISA. The IL1R family receptors include IL1R⅟CD121a (Sino biological, 10126-H08H), IL1R2/CD121b (Sino biological, 10111-H08H), IL1R3/IL1RAP (Sino biological, 10121-H08H), IL1R7/IL-18RAcP (Sino biological, 10176-H08H), IL1R8/IL1RAPL1 (Sino biological, 10177-H08H), and IL1R9/IL1RAPL2 (Sino biological, 10156-H08H). ELISA assays were performed using the proteins described above as antigens (2 µg/mL). See Example 13 for the specific ELISA procedure. No binding means that the antibody remains unbound to the antigen when at the highest concentration.

[3] = molecular target: T2, human ST2 (hST2, Interleukin-1 …); assay: cell-based or functional assay

Binder	IC50 [1]	binding result [2]	IC50, blocking of the IL33/ST2 signaling (NFκB luciferase reporter, HEK293T-hST2-NFκB-Luciferase cells, 50 pM hIL33 protein SEQ ID NO: 8) [3]
Humanized 31C8-1.1 (antibody, human IgG2, kappa, V domains shown, also called hz31C8-1.1; hz31C81-1.1) VH: EVQLVQSGAEVKKPGATVKISCKASGYIFIDSEMHWVQQAPGKGLEWMGAIDPETGDTVYAEKFQGRVTITADKSSSTAYMELSSLRSEDTAVYYCTGSTTDYYFAYWGQGTLVTVSS VL: DIQMTQSPSSLSASVGDRVTITCRSSKSLLHSNGIIYLYWYQQKPGKAPKLLIYQLSNLASGVPSRFSSSGSGTDFTLTISSLQPEDFATYYCAQNLELPFTFGQGTKVEIKR	1.89 nM	no binding	
Chimeric 31C8 (antibody, human IgG2, kappa, V domains shown, also called xi31C8) VH: QVQLQQSGPELVRPGASVTLSCKASGYIFIDSEMHWVKQTPVHGLEWIGAIDPETGDTVYNQKFKGKATLTADKSSSTASMELSSLTSEDSAVYYCTGSTTDYYFAYWGQGTTLTVSS VL: DIVMTQAAFSNPVTLGTSASISCRSSKSLLHSNGIIYLYWYLQKPGQSPQLLIYQMSNLASGVPDRFSSSGSGTDFTLRISRVEAEDVGVYYCAQNLELPFTFGSGTKLEIKR	1.93 nM	no binding	2.53 nM
Chimeric 3C6 (antibody, human IgG2, kappa, V domains shown, also called xi3C6) VH: QVQLQQSGAEVVRPGASVTLSCKASDYTITDYEMHWVKQTPVHGLEWIGAIDPETGDTAYSQNFKGKATLTADESSSTAYMELSSLTSEDSAVYYCSRSATDYYFASWGQGTTLTVSS VL: DIVMTQAAISNPVTLGTSASMSCRSSKSLLHSNGITYLYWYLQKPGHSPQLLIYQMSNLASGVPDRFSSSGSGTDFTLKISRVEAEDVGVYYCAQNLELPFTFGSGTKLEIKR			0.673 nM
Chimeric 26A1 (antibody, human IgG2, kappa, V domains shown, also called xi26A1) VH: QVQLQQSGAELVRPGASVTLSCKASDYIFTDSEIHWVKQTLVHGLEWIGAIDPETGDTAYNQKFKGKATLTADKSSSTAYMELSSLTSEGSAVYYCSGSTTDCYFAYWGQGTTLTVSS VL: DIVMTQAAFSNPVTLGTSASISCRSSKSLLHSNGIIYLYWYLQKPGQSPQLLIYQMSNLASGVPDRFSSSGSGTDFTLRISRVEAEDVGVYYCAQNLELPFTFGSGTKLEIKR			7.57 nM
Chimeric 7D1 (antibody, human IgG2, kappa, V domains shown, also called xi7D1) VH: QVQLQQSGAELVRPGASVTLSCKASGYTFTDYEMHWVKQTPVHGLDWIGTIDPETGDTAYNQKFKGRATLTADKSSSTAYMELSSLTSEDSAVYYCTRYSYTNSPYGMDYWGQGTSVTVSS VL: DVVMTQTPKFLLVSAGDRVTITCKASQSVSNDVAWYQQKPGQSPKLLIYYASNRYTGVPDRFTGSGYGTDFTFTINTVQAEDLAVYFCQQDYSSPYTFGGGTKLEIKR			0.12 nM

Further lines, results first:

IC50 [1]	binding result [2]	IC50, blocking of the IL33/ST2 signaling (NFκB luciferase reporter, HEK293T-hST2-NFκB-Luciferase cells, 50 pM hIL33 protein SEQ ID NO: 8) [3]	Binder
2.24 nM	no binding		Humanized 31C8-1.2 (antibody, human IgG2, kappa, V domains shown, also called hz31C8-1.2; hz31C81-1.2) VH: QVQLVQSGAKVKKPGATVKISCKASGYIFIDSEMHWVQQAPGKGLEWMGAIDPETGDTVYAKKFKGRVTITADKSSSTAYMELSSLRSEDTAVYYCTGSTTDYYFAYWGQGTLVTVSS VL: DIQMTQSPSSLSASVGDRVTITCRSSKSLLHSNGIIYLYWYQQKPGKAPKLLIYQLSNLASGVPSRFSSSGSGTDFTLTISSLQPEDFATYYCAQNLELPFTFGQGTKVEIKR
2.15 nM	no binding	11.9 nM	RG6149 (antibody Ab2 in CN104334582, prepared in-house) (antibody, human IgG2, kappa, V domains shown, Control anti-ST2 antibody) VH: EVQLVQSGAEVKKPGESLKISCKGSGYSFTNYWIGWVRQMPGKGLEWMGIIYPGNSDTRFSPSFQGQVTISADKSITTAYLQWSSLKASDTAMYYCARHGTSSDYYGLDVWGQGTTVTVSS VL: not shown
2.53 nM	no binding		GSK3772847 (antibody STLM208 in CN104411333, prepared in-house) (antibody, human IgG2, kappa, V domains shown, Control anti-ST2 antibody) VH: EVQLLESGGGLVQPGGSLRLSCAASGFTFSIYDMIWVRQAPGKGLEWVSSIRGEGGGTYYADSVKGRFTISRDNSKNTLYLQMNSLRAEDTAVYYCARDPWSTEGSFFVLDYWGQGTLVTVSS VL: EIVLTQSPATLSLSPGERATLSCRASQSVDDDLAWYQQKPGQAPRLLIYDASNRATGIPARFSGSGSGTDFTLTISSLEPEDFAVYYCQQYITAPLTFGQGTKVEIKR
